Measurements taken from publication PMC5584238.

Biological target: ectodomain of CD147 (CD147^ECT, residues 22-205), wild type (human) (UniProt P35613)

MMP-2 production of fibroblasts co-cultured with K7721-WT cells (full-length WT CD147 on cells) treated with different concentrations of Cu2+ up to 30 uM, gelatin zymography: 2.2 fold
Substance: ectodomain of CD147 (CD147^ECT, residues 22-205), wild type (from UniProt P35613-2 22-205) (domain or fragment)
